From article PMC7795613

Biological target: DDX3X 132-607 (human) (UniProt O00571)
Test: MST
Details: 20 nM labelled RNA, DDX3X 2-fold dilutions from 19 uM, 10 min at room temperature, measured at 25 C, assay buffer not stated (protein SEC buffer 50 mM …)

Chain of DDX3X 132-607 (human) (O00571 132-607): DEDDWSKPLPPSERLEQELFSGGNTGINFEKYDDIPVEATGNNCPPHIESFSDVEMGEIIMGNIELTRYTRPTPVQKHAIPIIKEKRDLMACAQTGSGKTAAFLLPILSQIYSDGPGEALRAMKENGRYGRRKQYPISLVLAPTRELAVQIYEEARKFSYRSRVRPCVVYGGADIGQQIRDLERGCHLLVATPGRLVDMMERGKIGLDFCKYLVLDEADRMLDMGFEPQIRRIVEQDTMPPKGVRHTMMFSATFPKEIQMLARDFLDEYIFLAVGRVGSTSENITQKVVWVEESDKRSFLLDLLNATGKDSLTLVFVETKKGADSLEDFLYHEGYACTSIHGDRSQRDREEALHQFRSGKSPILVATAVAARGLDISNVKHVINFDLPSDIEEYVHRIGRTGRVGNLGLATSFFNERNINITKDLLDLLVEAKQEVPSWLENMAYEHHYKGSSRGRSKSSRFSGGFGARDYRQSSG

Sequence | Kd
AGUUGUUACUGUUGCUGACUCAGACUGCGACAGUUCGAGUUUGAAGCGAAAGCUAGCAACAGUAUCAACAGGUUUUAUUUGGAUUUGGAAACGAGAGUUUCUGGUCAUGAAAAACCCAAAAAAGAAAUCCGGAGGAUUCCGGAUUGUCAAUAUGCUAAAACG [ZIKV 5' TR 1-163] | 7.05 µM
GGAGAAGUUUUAUCGUGUGAACUUCUUGGCUUAGUAUCGUUGAGAAGAAUCGAGAGAUUAGUGCAGUUUAAACAGUUUUUUAGAACGGAAGAACAACCAUGACUAAAAAACCAGGAGGGCCCGGAAAAAACCGGGCCAUCAAUAUGCUGAAACGCGGAU [JEV 5' TR] | 1.66 µM
